The values that follow come from patent US20030120037A1 (published 2003).

The target in assay [1] is FPRL1, seven-transmembrane G-protein coupled receptor (human) (UniProt P25090). Put plainly: cell-based or functional assay.
The target of assay [2] is T1, FPR, classical formyl peptide receptor (human, UniProt P21462 1-350).
T1 construct: whole, on cells; also called FPR/293 cells
T1 sequence (looked up): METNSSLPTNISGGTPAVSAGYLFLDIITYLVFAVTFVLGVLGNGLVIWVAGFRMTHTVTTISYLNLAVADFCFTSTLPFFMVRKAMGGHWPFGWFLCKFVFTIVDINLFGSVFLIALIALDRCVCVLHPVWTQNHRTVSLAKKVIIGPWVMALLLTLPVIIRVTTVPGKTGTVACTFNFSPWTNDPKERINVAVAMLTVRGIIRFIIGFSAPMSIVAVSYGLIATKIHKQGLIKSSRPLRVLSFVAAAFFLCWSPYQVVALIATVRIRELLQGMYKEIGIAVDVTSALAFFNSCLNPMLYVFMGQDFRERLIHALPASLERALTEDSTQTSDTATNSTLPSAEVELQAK
As to the kind of experiment: binding of radiolabeled SAA to receptor-transfected cells.

Assay [3] has as its target T2, FPRL1, seven-transmembrane G-protein coupled receptor (human, UniProt P25090 1-351).
T2 construct: whole, on cells; also called FPRH2; LXA4R
T2 sequence (looked up): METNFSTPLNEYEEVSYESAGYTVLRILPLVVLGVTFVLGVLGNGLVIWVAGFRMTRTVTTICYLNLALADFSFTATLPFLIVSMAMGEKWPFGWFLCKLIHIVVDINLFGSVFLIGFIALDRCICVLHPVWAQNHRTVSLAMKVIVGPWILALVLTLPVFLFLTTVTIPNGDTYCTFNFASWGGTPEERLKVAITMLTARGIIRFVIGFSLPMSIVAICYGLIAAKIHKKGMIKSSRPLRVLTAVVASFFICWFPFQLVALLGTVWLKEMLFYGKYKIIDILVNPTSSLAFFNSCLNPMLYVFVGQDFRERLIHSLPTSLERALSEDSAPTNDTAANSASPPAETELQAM
Put plainly: radioligand binding on FPRL1/293 cells; 16 nM 125I-SAA with increasing unlabeled SAA; LIGAND analysis; FPRL1/293 cells; saturation/LIGAND estimate, 42000 sites/cell.
Procedure: (§1) The data was analyzed and plotted using LIGAND software on a Macintosh computer.
(§2) After incubation, the cells were washed once with ice-cold PBS then were layered onto a 10% sucrose/PBS cushion in Eppendorf tubes. The cells were centrifuged at 10,000 g for 1 min and the tips of the tubes containing cell pellets were cut and measured for radioactivity in a y-counter.

Assay [4] deals with T2, FPRL1, seven-transmembrane G-protein …. Put plainly: Homologous displacement binding on human monocytes (native cells): constant 125I-SAA plus increasing unlabeled SAA, LIGAND/Scatchard analysis. The filing names FPRL1 as the SAA receptor on phagocytes; the receptor on monocytes is not isolated in this panel.
Procedure: as §1, §2
The target is the same in assay [5]. Put plainly: displacement of 125I-SAA from FPRL1/293 cells by unlabeled SAA (the same value is told for monocytes and neutrophils); homologous displacement of 125I-SAA by unlabeled SAA; FPRL1/293 cells.
Procedure: as §1, §2

For the molecule “N-formyl-methionyl-leucyl-phenylalanine (peptide)”, in assay [1], the Ca2+ mobilization in FPRL1 transfected cells (FPRL1/293 cells) came to 10 µM.

B1: 125I-labeled recombinant human serum amyloid A (ligand)
chain: MRSFFSFLGEAFDGARDMWRAYSDMREANYIGSDKYFHARGNYDAAKRGPGGVWAAEAISNARENIQRFFGRGAEDSLADQAANEWGRSGKDPNHFRPAGLPEKY
modifications: radio-iodinated on tyrosine and lysine residues with the chloramine T method (125I)
notes: specific activity 5.8 mCi/mg; also called radioiodinated SAA
The Kd is the concentration at which binding is half-saturated. On to B1, for which the binding result in assay [2] is “no binding”. The Kd in assay [3] was 64 nM; in assay [4], 34 nM.

B2: Recombinant human (rh) serum amyloid A (SAA) (ligand)
chain: MRSFFSFLGEAFDGARDMWRAYSDMREANYIGSDKYFHARGNYDAAKRGPGGVWAAEAISNARENIQRFFGRGAEDSLADQAANEWGRSGKDPNHFRPAGLPEKY
notes: Bought from Pepro Tech; also called rhSAA; unlabeled SAA
For orientation: IC50 means the concentration needed to halve the response being measured. Read a low IC50 as greater potency. B2 came in with a 50% inhibitory concentration (IC50) in assay [5] of about 50 nM.
